Laboratory results: the nanobody polyreactivity screen of Harvey et al. (2022)

experiment: yeast display, Sf9 membrane polyspecificity reagent, FACS + sequencing; frameworks hold sequencing errors
Summary of the method: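 Using colony PCR, genes from sorted yeast display clones were amplified, then sequenced on MiSeq at 2 × 250 and filtered by CDR length. The clones had been stained with 10% biotinylated, detergent-solubilized Sf9 membrane reagent for 1 hour at 4 °C and sorted by FACS into low and high (top ~1%) gates on anti-HA and streptavidin fluorescence. Polyreactivity labels come from the gate of origin.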

| Sequence | polyreactivity (PSR sort gate) |
| --- | --- |
| QVQLVESGGGVVQAGGSLRLSCAASGSIFLGNAMGWYRPAPGKERELVAAITWSGGSTYYADSVKGRFTISRDNAKNTVYLQMNSLKPEDTAVYYCNAYSYVAIRDGGDYWGQGTLVTVSS | low polyreactivity |
| QVQLVESGGGVVQAGGSLRLSCAASGSIFRYYTRGGYRQAPGKVRELVAAISRSGGSTYYADSVKGRFTISRDNAKNTVYLQMNSLKPEDTAVYYCAARYKRAQGYREGDYWGQGTQVTVSS | high polyreactivity |
| QVQLVESGGGVVQAGGSLRLSCAASGSTFGWYALGWYRQAPGKERELVAAITSGGSTKYADSVKGRFTISRDNAKNTVVLQMNSLKTEDTAVYYCDTVRGYYSPVLVIGYYWGQGTQVTVSS | high polyreactivity |
| QVQLVESGGGVVQAGGSLRLSCAASGSTFLLYDMGWYRQAPGKERELVARISSGDSTNYADSVKGRFTISRDNAKNTVYLLMNSLIPEDTAVYYCAAEGGVQEFDYWGQGTQVTVSS | low polyreactivity |
| QVQLVESGGGVVQAGGSLRLSCAASGSTFLVNAMGWYRQAPGKERELVAAISRSTGSTYYADSVKGRFTISRDNAKNSVYLQMNSLKPEDTAVYYCAVYRHGYGYNYWGQGTQVTVSS | high polyreactivity |
| QVQLVESGGGVVQAGGSLRLSCAASGSTFVFYTMGWSRQAPGKEREFVASISGSGGSTYYADSVKGRFTISRDNAKNTVYLQMNSLKPEDTAVYYCAAGYPYYYWTPYYYWGQGTQVTVSS | high polyreactivity |
| QVQLVESGGGVVQAGGSLRLSCAASGSTFYLTVLGWYRKAPGKERELVAASSSSGGSTYYADSVKGRFTISRDNAKNTVYLQMNSLKPEDTAVYYCNKVSAFPHYSGYAYWGQGTQVPVSS | low polyreactivity |
| QVQLVESGGGVVQAGGSLRLSCAASGSTMGYYAMGWYRPAPGKERELVATITRSGGNTYYADSVKGRFTISRDNAKNTVYLQMNSLKPDDNAVYYCAARRLYGSQRGYWGHGTQVTVSS | high polyreactivity |
| QVQLVESGGGVVQAGGSLRLSCAASGSTSGIYAMGWYRQAPGKERELVAAIDTYGGSTYADSVKGRFTISRDNAKNTVYLQMNSVKPEDTAVYYCAKPFSSNSWSHGYCGQGTQVTVSS | low polyreactivity |
| QVQLVESGGGVVQAGGSLRLSCAASGYTFLPYAMGWYRQAPGNARELVAAITVRGGRTYDADAVKGRFTISRHNAKKTVYLQMNSLKPEDTAVYYCHTDAYRLGYDYWGPGTQVTVSS | high polyreactivity |
| QVQLVESGGGVVQAGGSLRLSCAASRRTFTYYDMGWYRQAPGKERELVAGITARGGSTYADSVKGRFTISRDNAKNTVYLQMNSLKPEDTAVYYCAADLYTSLDSTYVYWGQGTQVTLSS | low polyreactivity |
| QVQLVESGGGVVQAGGSLRLSCAATGRTFWRYAMGGYIQAPGKERELVASISVSGGTTYYAYSVKGRFTISRDHAKNTVYLQMNSLKPEDTAVYYCAARYGSIYSILYYRFVYWGQGTQVTVSS | high polyreactivity |
| QVQLVESGGGVVQAGGSLRLSCAAYRSIFLFKAMGWYRQATGKERELVAAINRDDSTYYADSVKGRFTISRDNAKNTVYLQMNSLKPEDTAVYYCAAPVLHASYGYGYWGQGTQVTVSS | low polyreactivity |
| QVQLVESGGGVVQAGGSLRLTCAASGIIFYRYSMGWYSQAPGKERELVAAISIGGGSTYYADSVKVRFTISRYNAKNTVYLEMNSLKPEDTAVYYCAADTYNYVGYNGHDYWGQGTQVTVSS | low polyreactivity |
| QVQLVESGGGVVQAGGSLRVSCAASGRIFAPYAMGWYRQAPGKERELVAAISWRGSSTYYADSVKGRFTISRDNAKNTVSLQMNSLKPEDTAVYYCAAPSSKYWGQGTQVTVSS | low polyreactivity |
| QVQLVESGGGVVQAGGTLLLICAASGSTFIVNAMVWYRQAPRKERELVAAITGSGGNTYYADSVKGRFTISRDNAKNTVYLQINTLKPEDTAVYYCAAETYYGRIYWYIRDYWGQGTQVSVSS | low polyreactivity |
| QVQLVESGGGVVQAGVSLRLSCAASGFTSHGYAKGWYRQAPGQERELVAAIDSVGSTYYADSVKGRFTISRDNSKNTVYLQMNSLKQEDTAVYYCAARRKRVSFYQEYDYWGQGTQVTVSS | low polyreactivity |
| QVQLVESGGLIVQAGRSIRLTCAASGSIFYSYPMGWYRQAPGKERELVAAIRFSRGTTYYADSVKGRFTISRDNAKNTVYLQMNSLKPEDTAVYYCAATLSSYSYLFEYDYWGQCTQVTVSS | low polyreactivity |
| QVQLVESGGLLVQAGGSLRLSCAASGFNFYNYAMGWYRQAPGKERELVAAISKRGGRTYYADSVKGRFTISRDNAKITVYLQMNRLKPVDTAVYYCNTDAVRPYHVAWYDYWGQGTQVTVSS | high polyreactivity |
| QVQLVESGGLLVQAGGSLRLSCAASGRIFNYNAMGWYRQAPGKERELVAAIDSGGRTNYADSVKARFTISRDNAKNTGYLQMNSLKPEDTAVYYCNREAAHGSLRWTEMEYWGQGTQVTVSS | low polyreactivity |
| QVQLVESGGLLVQAGGSLRLSCAASGRISPKNAMGWYRQAPGKERELVATIRKIGGRTYYADSVKGRFTISRDNAKNTVYLQMNSLKTEDTAVYYCATDFAPSYYPDRFDYWGQGTQVTVSS | low polyreactivity |

| Sequence | polyreactivity (PSR sort gate) |
| --- | --- |
| QVQLVESGGLLVQAGGSLSLSCAASGRTFTPNAMGWYRQAPGKEREFVAAITYYGGSTRYADSVKGRFTISRDNAKNTVYLQMNSLIPEDTAVYYCAADVHYRYFYSWSSYSGYGYWGQGTQVTVSS | low polyreactivity |
| QVQLVESGGRIVQAGGSLRLSCAASGSTFYPYAMGWSRPAPGKEGQFVAAITWSGGSTYADSVKGRFTISRDNAKNTVYLQMNSLKPEDTAVYYCAAQPFVIEGGYRGDYWGQGTQETVSS | low polyreactivity |
| QVQLVESGGRLFQAGGSLRLICAASGSIFVYNTKGWYRQSPGKERELVASISYSGGPTYYADSVKGRFTISRDNAKNTVYLQMKSLNPEDTAVYYCAADVRQRGIYGPGPHYYWGQGTQVTVSS | high polyreactivity |
| QVQLVESGGRLVKAGGSLRLSCAASGRNFFYYTMAWYRQAPGKERELVATISWRGGSTYYADSVKGRFTFSRDNAKNTDYLLMNSLKPEETAVYYCAARYRCRYDSWGQGTQVTVSS | high polyreactivity |
| QVQLVESGGRLVQAGGRLRLSCAASGNIFYGYAMGWYRQAPGKERELVARINWSGSRTYYADTVKGRFTISRDNAKNTVYLQMNSLNPEDTAVYYCNTSTSRVPGNGDYWGQGTQVTVSS | high polyreactivity |
| QVQLVESGGRLVQAGGSHRLSCAASGFIFYDYAMGWYIQAPGKERELVAVITRGGSTYYADSVKGRFTISRDNAKNTVYLLMNSLKPEDTAVYYCAAYWFTPGFTFDYWGQGTQVTVSS | low polyreactivity |
| QVQLVESGGRLVQAGGSHRLSCAASGRTFNVYAMGWYRQAPGKERELVASISSSDTTNYADSVKGRFTISRDNAKNTVYLQMNSLKPEDTAVYYCAADYTPDLLSKVDYCGQGTQVTVSS | low polyreactivity |
| QVQLVESGGRLVQAGGSHRLSCAASGRTFVENAMGWYRQAPGQEREFVAAISSSGDSTYYADSVKGRFTISRDNEKYTVYLKMNSLNPEDTAVYYCAARVYSRGLFYWGEGTQVTVSS | low polyreactivity |
| QVQLVESGGRLVQAGGSIRLSCAASGRIFTDNAMGWYRQAPGKERELVAAISWDGSSTSYADSVKGRFTISRDNAKNTVYLQMNSLQPEDTAVYYCAASGVGTNHYGYWNESDYWGQGTQVTVSS | low polyreactivity |
| QVQLVESGGRLVQAGGSIRLSCAASGRTFYNNAMGWYRQAPGKERELVAAISSGGSTYYADSVKGRFTISRDNAKNTVYLQMNSLKPEDTAVYYCNVRRGGWGYRYYYWGQGNQVTVSS | high polyreactivity |
| QVQLVESGGRLVQAGGSLLLSCAASGRIFRLYAMGWNTQAPGKERQLVASISSTGRTNYADSVKGRFTISRDNAKNTVYLQMNCLKPEDTAVYYCNAAVIYRYSQWDYGYWGLGTQVTVSS | high polyreactivity |
| QVQLVESGGRLVQAGGSLLLSCAASGSTIGYYDMGWYRQAPGKERELVASITKSGGTTRYADSVKGRFTISRDNAKNTVYLQMNSLKPEDTAVYYCNADRSLLYSRKIEYDYWGQGTQVTVRS | low polyreactivity |
| QVQLVESGGRLVQAGGSLRISCAASGRTFRYYAKGWYRQAPGKERELVAAISSRGTRTYYADSVKGRFTISRDNAKNTGYLQMNSLKPEDTAVYYCATRYYQELAYDFWGQGTQVIVSS | high polyreactivity |
| QVQLVESGGRLVQAGGSLRLICAASGLIFYHNAMGWYRQAPGKERELVAAITASGGSTYYADSVKGRFTISRDNAKNTVYLQMNSLKPEDTAVYSCSADGPLDSDLDYWGQGTQVTVSS | low polyreactivity |
| QVQLVESGGRLVQAGGSLRLRCAASGFTFGYNDMGWYRPAPGKERELLAGIRSGDDTNYADSVKGRFTISRDNAKNTDYLQMNSLKPEDTAVYYCAADVVNIATAEYDYCGQGTQVTVSS | low polyreactivity |
| QVQLVESGGRLVQAGGSLRLSCAASGFIFAVYAMGSYRQAPGKECELVAAISRSSGSTYYADSVKGRFTISRHNAKNTVYLQMNSLKPEDTAVYYCAAVFLYRGYAQYDYWGQGTQVTVSS | high polyreactivity |
| QVQLVESGGRLVQAGGSLRLSCAASGFIFQYYTMGWYRQAPGKERELVAGISRSGGSTYYADSVKGRFTISRDNAKNTVYLQMNSLKPEDTAVYYCAAKIRTSDMGYWGQGTQVTVSS | high polyreactivity |
| QVQLVESGGRLVQAGGSLRLSCAASGFTFKYYAMGWYTQAPGKERELVAAIRRSAGSTNYADSVKGRFTISRDNAKNTVYLQMNSLKPEDTAVYYCNTVGTRQPMDYWGQGTQVTVSS | high polyreactivity |
| QVQLVESGGRLVQAGGSLRLSCAASGGIFPPNAKGWYRQAPGKERELVASISSDGSTNYADSVKGRFTISRDNAKNTVYLQMNSLKPEDTAVYYCAADSTTSWARLHVRRFYYWGQGTQVTVSS | low polyreactivity |
| QVQLVESGGRLVQAGGSLRLSCAASGISFNYYAMGWYRQAPGKEREMVAGITSGGSTYYADSVKGRFTISRDNAKNTVYLQMNSLKTEDTAVYYCATRVRDGSQTPYRRGHSYDYWGQGTQVTVSS | high polyreactivity |
